The assay addresses T1, CHIP-myc (wild type), Q9UNE7.
T1 chain: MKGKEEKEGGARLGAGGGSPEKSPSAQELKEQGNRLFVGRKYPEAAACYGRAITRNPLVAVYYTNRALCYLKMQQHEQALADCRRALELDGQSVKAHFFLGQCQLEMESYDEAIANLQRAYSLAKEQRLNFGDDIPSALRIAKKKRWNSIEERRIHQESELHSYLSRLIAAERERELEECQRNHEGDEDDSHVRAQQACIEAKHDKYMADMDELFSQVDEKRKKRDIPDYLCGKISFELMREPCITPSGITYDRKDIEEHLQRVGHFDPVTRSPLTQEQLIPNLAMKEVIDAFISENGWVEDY
Briefly: co-immunoprecipitation (anti-flag IP, anti-myc immunoblot), quantified. As to conditions: chain shown with the change, serum deprived for 24 h, co-transfected with HSP70-V5 and CHIP-myc, read off a plot.

This is an account of results in paper PMC5964327.

B1: NEK10-flag (wild type), Q6ZWH5-1 T812A (protein)
chain: MPDQDKKVKTTEKSTDKQQEITIRDYSDLKRLRCLLNVQSSKQQLPAINFDSAQNSMTKSEPAIRAGGHRARGQWHESTEAVELENFSINYKNERNFSKHPQRKLFQEIFTALVKNRLISREWVNRAPSIHFLRVLICLRLLMRDPCYQEILHSLGGIENLAQYMEIVANEYLGYGEEQHTVDKLVNMTYIFQKLAAVKDQREWVTTSGAHKTLVNLLGARDTNVLLGSLLALASLAESQECREKISELNIVENLLMILHEYDLLSKRLTAELLRLLCAEPQVKEQVKLYEGIPVLLSLLHSDHLKLLWSIVWILVQVCEDPETSVEIRIWGGIKQLLHILQGDRNFVSDHSSIGSLSSANAAGRIQQLHLSEDLSPREIQENTFSLQAACCAALTELVLNDTNAHQVVQENGVYTIAKLILPNKQKNAAKSNLLQCYAFRALRFLFSMERNRPLFKRLFPTDLFEIFIDIGHYVRDISAYEELVSKLNLLVEDELKQIAENIESINQNKAPLKYIGNYAILDHLGSGAFGCVYKVRKHSGQNLLAMKEVNLHNPAFGKDKKDRDSSVRNIVSELTIIKEQLYHPNIVRYYKTFLENDRLYIVMELIEGAPLGEHFSSLKEKHHHFTEERLWKIFIQLCLALRYLHKEKRIVHRDLTPNNIMLGDKDKVTVTDFGLAKQKQENSKLTSVVGTILYSCPEVLKSEPYGEKADVWAVGCILYQMATLSPPFYSTNMLSLATKIVEAVYEPVPEGIYSEKVTDTISRCLTPDAEARPDIVEVSSMISDVMMKYLDNLSTSQLSLEKKLERERRRAQRYFMEANRNTVTCHHELAVLSHETFEKASLSSSSSGAASLKSELSESADLPPEGFQASYGKDEDRACDEILSDDNFNLENAEKDTYSEVDDELDISDNSSSSSSSPLKESTFNILKRSFSASGGERQSQTRDFTGGTGSRPRPALLPLDLLLKVPPHMLRAHIKEIEAELVTGWQSHSLPAVILRNLKDHGPQMGTFLWQASAGIAVSQRKVRQISDPIQQILIQLHKIIYITQLPPALHHNLKRRVIERFKKSLFSQQSNPCNLKSEIKKLSQGSPEPIEPNFFTADYHLLHRSSGGNSLSPNDPTGLPTSIELEEGITYEQMQTVIEEVLEESGYYNFTSNRYHSYPWGTKNHPTKR
With B1, the response (arbitrary units) runs as follows: (+FSK (30'), parent: est. 100) 5; (-FSK, parent: est. 10) 28.
